Measured values as given in PMC2114603.

Target: lymphoma 4.1-like protein (68/65-kD phosphoprotein doublet) of mouse T-lymphoma cells (mouse (endogenous in BW 5147))
Assay: co-sedimentation
Conditions: scale: gp 25 per 68/65-kD protein

lymphoma 4.1-like protein (68/65-kD phosphoprotein doublet) of mouse T-lymphoma cells (mouse (endogenous in BW 5147)), sequence (P48193 whole entry): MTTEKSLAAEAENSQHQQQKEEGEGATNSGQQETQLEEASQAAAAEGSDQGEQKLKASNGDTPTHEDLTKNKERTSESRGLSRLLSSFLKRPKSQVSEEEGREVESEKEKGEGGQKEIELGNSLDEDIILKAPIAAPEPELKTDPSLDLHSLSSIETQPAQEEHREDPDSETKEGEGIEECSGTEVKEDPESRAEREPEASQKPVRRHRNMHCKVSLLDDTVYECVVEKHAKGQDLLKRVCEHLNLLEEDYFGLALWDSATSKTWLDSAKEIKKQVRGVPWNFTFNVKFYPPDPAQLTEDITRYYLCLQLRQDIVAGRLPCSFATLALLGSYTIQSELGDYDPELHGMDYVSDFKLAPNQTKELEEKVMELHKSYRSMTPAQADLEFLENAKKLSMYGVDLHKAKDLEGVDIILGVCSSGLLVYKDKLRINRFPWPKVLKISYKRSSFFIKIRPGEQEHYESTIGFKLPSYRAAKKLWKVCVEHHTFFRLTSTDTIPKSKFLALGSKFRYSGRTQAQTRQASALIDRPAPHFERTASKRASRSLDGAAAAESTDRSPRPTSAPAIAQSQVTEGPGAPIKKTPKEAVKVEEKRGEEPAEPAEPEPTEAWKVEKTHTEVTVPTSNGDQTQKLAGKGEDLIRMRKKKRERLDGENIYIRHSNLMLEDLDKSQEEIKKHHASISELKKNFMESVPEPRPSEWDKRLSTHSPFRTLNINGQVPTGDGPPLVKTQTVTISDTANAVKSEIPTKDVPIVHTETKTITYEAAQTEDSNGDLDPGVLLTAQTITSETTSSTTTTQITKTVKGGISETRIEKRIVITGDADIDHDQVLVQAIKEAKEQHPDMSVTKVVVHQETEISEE

B1: Thy-1 glycoprotein (gp 25) of mouse T-lymphoma cells (natural protein)
chain: QKVTSLTACLVNQNLRLDCRHENNTKDNSIQHEFSLTREKRKHVLSGTLGIPEHTYRSRVTLSNQPYIKVLTLANFTTKDEGDYFCELQVSGANPMSSNKSISVYRDKLVKC
modifications: glycoprotein ([3H]glucosamine-labelled); 125I-labelled or unlabelled
- stoichiometry N: 4
